Data: the supplement of paper PMC10065799, “High-throughput profiling of sequence recognition by tyrosine kinases and SH2 domains using bacterial peptide display” (eLife, 2023)

Legend:
SHP2-C SH2 = test: SH2 binding enrichment of the phosphorylated peptide, bacterial display (enrichment ratio); higher = better substrate or ligand; peptides without Tyr show the background
c-Src SH2 = test: as above
Grb2 SH2 = Grb2 SH2 (UniProt P62993); test: as above
FGFR1 = FGFR1 (UniProt P11362); test: phosphorylation enrichment, bacterial display (enrichment ratio); higher = better substrate or ligand; peptides without Tyr show the background
EPHB1 = EPHB1 (UniProt P54762); test: as above
Fes = Fes (UniProt P07332); test: as above
Fer (mouse) = test: as above
Fyn = Fyn (UniProt P06241); test: as above
Jak2 = Jak2 (UniProt O60674); test: as above
Hck = Hck (UniProt P08631); test: as above
AncSZ = test: as above
c-Abl (mouse) = test: as above
FGFR3 = FGFR3 (UniProt P22607); test: as above
MERTK = MERTK (UniProt Q12866); test: as above
c-Src = test: as above
EPHB2 = EPHB2 (UniProt P29323); test: as above
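For SH2 binding enrichment of the phosphorylated peptide, bacterial display in this document: peptide library displayed on the E. coli surface as eCPX fusions, selected cells deep-sequenced, score is each peptide's frequency after selection divided by its frequency in the input.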
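For phosphorylation enrichment, bacterial display in this document: 11-residue human phosphosite peptides and single-mutation variants displayed on the E. coli surface, counted by deep sequencing, each peptide's frequency after selection divided by its frequency in the unselected input library; frequency after pTyr selection over input frequency; kinase dosed for 20-30% of maximal phosphorylation in three min.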

Sequence of Grb2 SH2 (P62993 whole entry, looked up): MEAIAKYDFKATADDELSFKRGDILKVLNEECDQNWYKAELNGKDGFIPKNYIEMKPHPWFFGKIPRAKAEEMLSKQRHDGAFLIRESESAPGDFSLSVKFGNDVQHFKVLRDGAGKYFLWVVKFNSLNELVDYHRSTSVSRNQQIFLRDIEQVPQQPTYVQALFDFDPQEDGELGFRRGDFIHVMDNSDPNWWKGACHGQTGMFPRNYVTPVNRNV
Sequence of EPHB1 (P54762 whole entry, looked up): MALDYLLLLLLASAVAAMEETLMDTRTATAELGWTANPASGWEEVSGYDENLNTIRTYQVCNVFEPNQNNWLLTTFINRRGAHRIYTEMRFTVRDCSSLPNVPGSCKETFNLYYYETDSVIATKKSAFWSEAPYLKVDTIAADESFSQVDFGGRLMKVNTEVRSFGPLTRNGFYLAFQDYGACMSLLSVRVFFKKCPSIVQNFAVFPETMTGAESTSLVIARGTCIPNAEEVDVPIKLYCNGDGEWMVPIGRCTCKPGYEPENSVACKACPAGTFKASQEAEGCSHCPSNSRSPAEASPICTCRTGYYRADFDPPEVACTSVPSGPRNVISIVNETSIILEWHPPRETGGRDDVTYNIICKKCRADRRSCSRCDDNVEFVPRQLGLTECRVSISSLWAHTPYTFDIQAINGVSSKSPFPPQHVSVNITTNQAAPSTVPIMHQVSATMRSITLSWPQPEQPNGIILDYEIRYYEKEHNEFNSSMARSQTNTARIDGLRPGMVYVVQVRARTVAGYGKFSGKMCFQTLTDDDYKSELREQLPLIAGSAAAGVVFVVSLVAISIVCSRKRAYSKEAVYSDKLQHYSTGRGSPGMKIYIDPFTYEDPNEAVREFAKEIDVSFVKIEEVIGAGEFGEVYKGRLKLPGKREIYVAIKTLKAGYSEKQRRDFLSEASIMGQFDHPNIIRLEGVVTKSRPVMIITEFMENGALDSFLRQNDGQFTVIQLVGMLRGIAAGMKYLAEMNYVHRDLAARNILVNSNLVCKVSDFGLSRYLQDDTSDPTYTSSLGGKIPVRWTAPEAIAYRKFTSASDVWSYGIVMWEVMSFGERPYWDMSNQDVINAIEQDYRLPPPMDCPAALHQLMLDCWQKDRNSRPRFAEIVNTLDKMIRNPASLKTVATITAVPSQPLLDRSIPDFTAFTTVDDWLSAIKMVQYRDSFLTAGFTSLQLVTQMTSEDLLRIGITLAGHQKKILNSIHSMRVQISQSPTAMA
Sequence of FGFR1 (P11362 whole entry, looked up): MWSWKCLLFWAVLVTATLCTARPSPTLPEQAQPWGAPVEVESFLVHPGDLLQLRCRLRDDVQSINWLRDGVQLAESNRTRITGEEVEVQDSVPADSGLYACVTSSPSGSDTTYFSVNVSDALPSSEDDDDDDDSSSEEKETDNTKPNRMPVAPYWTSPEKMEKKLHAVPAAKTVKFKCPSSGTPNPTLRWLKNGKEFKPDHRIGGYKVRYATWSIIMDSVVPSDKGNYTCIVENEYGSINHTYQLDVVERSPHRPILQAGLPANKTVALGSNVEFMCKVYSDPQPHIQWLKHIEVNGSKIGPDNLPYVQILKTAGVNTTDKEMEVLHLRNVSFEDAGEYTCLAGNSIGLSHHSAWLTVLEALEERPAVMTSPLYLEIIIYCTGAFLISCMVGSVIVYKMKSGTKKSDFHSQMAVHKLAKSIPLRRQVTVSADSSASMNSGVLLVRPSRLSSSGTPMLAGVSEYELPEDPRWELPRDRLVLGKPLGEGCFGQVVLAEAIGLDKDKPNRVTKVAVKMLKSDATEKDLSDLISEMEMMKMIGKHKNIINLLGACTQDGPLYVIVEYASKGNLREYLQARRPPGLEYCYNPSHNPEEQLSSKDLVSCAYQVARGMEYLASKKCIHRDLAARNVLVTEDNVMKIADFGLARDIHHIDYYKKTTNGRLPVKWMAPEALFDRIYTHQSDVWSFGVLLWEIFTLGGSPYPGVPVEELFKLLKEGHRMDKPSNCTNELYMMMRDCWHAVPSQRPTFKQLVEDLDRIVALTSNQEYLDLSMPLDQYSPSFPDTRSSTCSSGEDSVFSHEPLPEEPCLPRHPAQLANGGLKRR
Sequence of EPHB2 (P29323 whole entry, looked up, the tested form may be a part): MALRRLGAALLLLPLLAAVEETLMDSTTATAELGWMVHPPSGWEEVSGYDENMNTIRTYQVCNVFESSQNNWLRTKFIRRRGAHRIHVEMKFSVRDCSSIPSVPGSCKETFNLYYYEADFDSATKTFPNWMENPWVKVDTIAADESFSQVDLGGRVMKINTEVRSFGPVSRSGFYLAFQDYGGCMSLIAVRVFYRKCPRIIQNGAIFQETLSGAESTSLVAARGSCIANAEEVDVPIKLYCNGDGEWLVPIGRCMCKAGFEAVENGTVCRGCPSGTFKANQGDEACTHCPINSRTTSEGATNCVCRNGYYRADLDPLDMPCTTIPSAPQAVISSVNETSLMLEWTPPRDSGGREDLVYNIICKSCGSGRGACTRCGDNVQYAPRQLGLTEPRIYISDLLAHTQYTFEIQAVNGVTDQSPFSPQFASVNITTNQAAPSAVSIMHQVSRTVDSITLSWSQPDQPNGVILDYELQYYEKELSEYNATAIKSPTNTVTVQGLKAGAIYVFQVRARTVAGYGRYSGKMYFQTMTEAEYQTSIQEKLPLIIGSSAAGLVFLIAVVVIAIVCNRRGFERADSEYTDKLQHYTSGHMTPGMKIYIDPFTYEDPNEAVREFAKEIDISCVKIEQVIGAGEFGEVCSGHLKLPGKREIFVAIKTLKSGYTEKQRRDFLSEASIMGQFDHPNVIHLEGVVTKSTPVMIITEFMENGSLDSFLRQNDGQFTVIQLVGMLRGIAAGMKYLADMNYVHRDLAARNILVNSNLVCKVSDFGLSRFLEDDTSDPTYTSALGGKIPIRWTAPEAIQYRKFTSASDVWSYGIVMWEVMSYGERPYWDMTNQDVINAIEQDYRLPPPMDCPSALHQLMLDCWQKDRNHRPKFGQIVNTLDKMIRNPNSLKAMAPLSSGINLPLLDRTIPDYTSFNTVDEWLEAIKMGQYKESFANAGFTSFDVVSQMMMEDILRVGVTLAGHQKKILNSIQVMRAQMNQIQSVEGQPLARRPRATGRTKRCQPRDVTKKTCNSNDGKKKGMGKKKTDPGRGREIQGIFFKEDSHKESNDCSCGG
Sequence of Fyn (P06241 whole entry, looked up): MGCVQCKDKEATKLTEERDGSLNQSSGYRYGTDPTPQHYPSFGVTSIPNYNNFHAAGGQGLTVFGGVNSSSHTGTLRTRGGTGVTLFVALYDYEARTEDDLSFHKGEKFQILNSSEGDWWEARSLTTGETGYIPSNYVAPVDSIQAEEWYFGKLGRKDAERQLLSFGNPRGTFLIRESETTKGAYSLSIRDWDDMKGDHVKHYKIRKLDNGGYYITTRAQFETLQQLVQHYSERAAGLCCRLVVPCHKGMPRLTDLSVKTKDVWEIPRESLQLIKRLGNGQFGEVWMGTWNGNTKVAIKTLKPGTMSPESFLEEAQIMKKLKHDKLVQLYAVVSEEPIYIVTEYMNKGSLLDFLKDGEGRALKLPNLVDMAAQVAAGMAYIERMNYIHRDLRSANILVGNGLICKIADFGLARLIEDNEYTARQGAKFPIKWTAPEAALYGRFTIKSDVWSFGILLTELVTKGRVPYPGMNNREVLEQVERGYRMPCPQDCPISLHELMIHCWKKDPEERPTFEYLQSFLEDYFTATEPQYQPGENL
Sequence of FGFR3 (P22607 whole entry, looked up): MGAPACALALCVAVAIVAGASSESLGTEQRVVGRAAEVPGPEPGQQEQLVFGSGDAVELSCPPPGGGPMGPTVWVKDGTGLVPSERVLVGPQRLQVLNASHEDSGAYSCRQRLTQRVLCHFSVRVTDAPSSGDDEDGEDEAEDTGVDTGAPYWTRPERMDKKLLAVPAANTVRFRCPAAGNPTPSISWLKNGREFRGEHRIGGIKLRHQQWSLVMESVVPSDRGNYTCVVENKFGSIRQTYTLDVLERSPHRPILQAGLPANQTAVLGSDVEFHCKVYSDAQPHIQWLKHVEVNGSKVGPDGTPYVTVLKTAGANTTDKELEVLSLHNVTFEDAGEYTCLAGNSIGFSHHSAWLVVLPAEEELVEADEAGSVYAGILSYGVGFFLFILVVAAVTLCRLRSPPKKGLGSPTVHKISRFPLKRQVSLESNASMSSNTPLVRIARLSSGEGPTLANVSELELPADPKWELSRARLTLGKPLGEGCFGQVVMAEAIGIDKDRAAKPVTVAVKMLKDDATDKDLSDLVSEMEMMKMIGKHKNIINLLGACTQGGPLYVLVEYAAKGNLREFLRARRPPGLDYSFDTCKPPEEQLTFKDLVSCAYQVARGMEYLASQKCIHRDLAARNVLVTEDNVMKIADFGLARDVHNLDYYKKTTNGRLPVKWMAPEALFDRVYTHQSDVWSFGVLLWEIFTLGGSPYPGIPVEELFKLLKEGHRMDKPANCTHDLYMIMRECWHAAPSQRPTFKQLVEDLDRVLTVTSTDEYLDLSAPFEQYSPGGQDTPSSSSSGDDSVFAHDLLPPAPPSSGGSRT
Sequence of Hck (P08631 whole entry, looked up): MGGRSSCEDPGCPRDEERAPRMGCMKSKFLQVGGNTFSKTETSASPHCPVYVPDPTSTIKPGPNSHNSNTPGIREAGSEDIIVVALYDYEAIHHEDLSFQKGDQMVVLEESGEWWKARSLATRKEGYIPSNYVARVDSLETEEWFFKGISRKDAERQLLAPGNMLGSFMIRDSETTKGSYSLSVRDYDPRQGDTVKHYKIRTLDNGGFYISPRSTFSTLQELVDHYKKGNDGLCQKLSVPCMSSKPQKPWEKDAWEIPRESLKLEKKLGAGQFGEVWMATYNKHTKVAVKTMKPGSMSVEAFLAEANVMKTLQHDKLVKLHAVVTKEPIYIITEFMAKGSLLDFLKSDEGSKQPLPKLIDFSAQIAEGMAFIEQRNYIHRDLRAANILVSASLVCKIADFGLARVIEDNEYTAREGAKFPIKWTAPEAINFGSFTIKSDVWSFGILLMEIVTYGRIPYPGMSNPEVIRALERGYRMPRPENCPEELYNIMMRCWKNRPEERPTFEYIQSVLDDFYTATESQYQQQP

| Sequence | SH2 binding enrichment (SHP2-C SH2) | SH2 binding enrichment (c-Src SH2) | SH2 binding enrichment (Grb2 SH2) | phosphorylation enrichment (FGFR1) | phosphorylation enrichment (EPHB1) | phosphorylation enrichment (Fes) | phosphorylation enrichment (Fer (mouse)) | phosphorylation enrichment (Fyn) | phosphorylation enrichment (Jak2) | phosphorylation enrichment (Hck) | phosphorylation enrichment (AncSZ) | phosphorylation enrichment (c-Abl (mouse)) | phosphorylation enrichment (FGFR3) | phosphorylation enrichment (MERTK) | phosphorylation enrichment (c-Src) | phosphorylation enrichment (EPHB2) |
| --- | --- | --- | --- | --- | --- | --- | --- | --- | --- | --- | --- | --- | --- | --- | --- | --- |
| EQYELYCEMGS [CBL_Y371] | 0.776 | 0.629 | 0.89 | 4.55 | 7.29 | 1.61 | 3.7 | 4.26 | 1.37 | 5.35 | 3.8 | 1.08 | 4.12 | 5.03 | 4.14 | 8.68 |
| SARVRYLMAEK [LDHB_Y173_F171V] | 0.755 | 0.862 | 0.925 | 0.482 | 0.46 | 0.756 | 0.439 | 0.43 | 0.39 | 0.423 | 0.579 | 0.472 | 0.532 | 0.417 | 0.38 | 0.521 |
| MKSIKYMDKEV [CCDC60_Y41_I46V] | 0.515 | 0.413 | 0.742 | 0.437 | 0.325 | 0.554 | 0.355 | 0.344 | 0.567 | 0.399 | 0.664 | 0.492 | 0.545 | 0.334 | 0.375 | 0.316 |
| WKKEIYEESST [MOCS2_Y170] | 0.535 | 0.448 | 0.776 | 2.85 | 0.422 | 1.17 | 0.471 | 0.424 | 1.18 | 0.488 | 1.04 | 0.83 | 0.661 | 0.378 | 0.485 | 0.603 |
| DDPRTYQKYGY [OAS1_Y362_R361T] | 0.833 | 0.598 | 0.866 | 0.446 | 0.458 | 0.76 | 0.41 | 0.43 | 0.635 | 0.492 | 0.74 | 0.572 | 0.555 | 0.421 | 0.549 | 0.611 |
| FSMGCYEIFLG [HMGCL_Y198_S201Y_YF] | 0.706 | 0.557 | 0.938 | 0.95 | 2.01 | 1.8 | 3.74 | 5.89 | 1.51 | 3.21 | 2.87 | 1.28 | 1.35 | 4.33 | 6.25 | 2.07 |
| EGWQVYRLGAR [MISP_Y95] | 0.662 | 0.515 | 0.901 | 0.5 | 0.493 | 0.857 | 0.396 | 2.59 | 0.697 | 1.12 | 0.9 | 0.625 | 0.607 | 0.423 | 4.5 | 0.439 |
| LSVEIHDRREF [ITGB7_Y753_Y753H_YF] | 0.563 | 0.421 | 0.678 | 0.87 | 0.88 | 1.59 | 0.795 | 0.65 | 1.3 | 0.814 | 1.63 | 0.86 | 1.17 | 0.558 | 0.795 | 1.1 |
| CTTIHYNFMRN [TP53_Y234_C238R_YF] | 0.896 | 0.773 | 0.949 | 0.567 | 0.605 | 1.07 | 0.571 | 0.568 | 0.889 | 0.577 | 1.03 | 0.767 | 0.993 | 0.489 | 0.449 | 0.626 |
| DCAAIYGNEPD [AKR1A1_Y50_E55D] | 0.813 | 0.982 | 1.11 | 0.638 | 0.668 | 1.64 | 0.672 | 1.02 | 1.25 | 1.09 | 1.35 | 0.978 | 0.957 | 0.585 | 1.65 | 0.726 |
| YFVVEYRNQKP [MUC17_Y4332_D4334N] | 3.19 | 2.83 | 1.58 | 11.1 | 0.931 | 1.36 | 0.738 | 0.842 | 2.32 | 0.605 | 1.72 | 0.722 | 9.02 | 4.22 | 0.836 | 0.842 |
| FADIAYNYRQG [PAH_Y166_H170Q] | 0.669 | 0.469 | 1.02 | 0.412 | 0.713 | 0.872 | 0.471 | 0.482 | 0.661 | 0.507 | 0.75 | 0.594 | 0.728 | 0.43 | 0.522 | 0.454 |
| NKYTTYLPRLP [C9orf24_Y126] | 0.776 | 0.991 | 0.905 | 0.402 | 0.454 | 0.684 | 0.38 | 0.51 | 0.706 | 0.714 | 0.575 | 0.625 | 0.418 | 0.483 | 0.616 | 0.386 |
| KSLFHHRQYSA [CPS1_Y1491_Y1491H] | 0.613 | 0.341 | 0.618 | 0.563 | 1.04 | 0.547 | 0.439 | 0.519 | 0.555 | 0.488 | 0.573 | 0.504 | 0.412 | 0.472 | 0.478 | 0.491 |
| MFCASYDTKQE [F10_Y407_G406S] | 0.749 | 0.733 | 0.774 | 0.561 | 0.536 | 1.17 | 0.571 | 0.558 | 0.986 | 0.554 | 1.01 | 0.731 | 0.746 | 0.552 | 0.511 | 0.717 |
| NNPAYYVLEGV [INPPL1_Y987] | 1.02 | 3.65 | 0.803 | 15.9 | 0.764 | 0.997 | 0.525 | 1.65 | 4.89 | 1.11 | 1.15 | 0.711 | 13.1 | 9.04 | 1.63 | 0.69 |
| IRKVLYANNVM [ACTA1_Y296_D294V] | 0.944 | 0.82 | 1.44 | 0.567 | 0.311 | 0.599 | 0.337 | 0.286 | 0.637 | 0.297 | 0.569 | 0.529 | 0.395 | 0.328 | 0.325 | 0.368 |

| Sequence | SH2 binding enrichment (SHP2-C SH2) | SH2 binding enrichment (c-Src SH2) | SH2 binding enrichment (Grb2 SH2) | phosphorylation enrichment (FGFR1) | phosphorylation enrichment (EPHB1) | phosphorylation enrichment (Fes) | phosphorylation enrichment (Fer (mouse)) | phosphorylation enrichment (Fyn) | phosphorylation enrichment (Jak2) | phosphorylation enrichment (Hck) | phosphorylation enrichment (AncSZ) | phosphorylation enrichment (c-Abl (mouse)) | phosphorylation enrichment (FGFR3) | phosphorylation enrichment (MERTK) | phosphorylation enrichment (c-Src) | phosphorylation enrichment (EPHB2) |
| --- | --- | --- | --- | --- | --- | --- | --- | --- | --- | --- | --- | --- | --- | --- | --- | --- |
| GISDEYHVIQH [GCDH_Y398_R402Q] | 0.567 | 0.816 | 0.804 | 6.93 | 0.554 | 0.928 | 0.447 | 0.752 | 0.883 | 0.846 | 1.64 | 0.641 | 3.78 | 0.496 | 0.898 | 0.526 |
| EYDRLYEEYTR [PIK3R1_Y467] | 0.678 | 3.83 | 0.728 | 0.826 | 4.27 | 1.43 | 6.02 | 7.8 | 1.21 | 6.46 | 2.49 | 1.34 | 0.889 | 2.8 | 5.99 | 7 |
| NAPNSYGRRPS [CDKN2A_Y44_I49S] | 0.533 | 0.747 | 0.774 | 0.46 | 0.481 | 0.849 | 0.588 | 0.582 | 0.711 | 0.512 | 0.805 | 0.63 | 0.541 | 0.499 | 0.49 | 0.593 |
| TNIKRYHIAKV [HARS1_Y150] | 0.986 | 0.81 | 0.967 | 0.301 | 0.301 | 0.553 | 0.278 | 0.379 | 0.43 | 0.264 | 0.408 | 0.375 | 0.328 | 0.358 | 0.348 | 0.322 |
| YKWAVYCIIGR [NUP93_Y391_R388W] | 1.42 | 1.36 | 2.41 | 0.527 | 3.37 | 1.48 | 0.646 | 1.04 | 1.08 | 1.29 | 1.23 | 0.981 | 0.751 | 0.953 | 1.18 | 1.83 |
| SHNKYYMLVAH [MFSD8_Y134_R139H] | 30 | 2.35 | 1.69 | 6.21 | 1.06 | 0.757 | 1.09 | 0.418 | 1.32 | 0.533 | 0.821 | 0.574 | 4.22 | 3.19 | 0.418 | 0.651 |
| LENSTYQFIRV [CRB1_Y760_YF] | 0.622 | 0.546 | 0.607 | 5.63 | 5.79 | 1.52 | 15.8 | 2.87 | 0.946 | 7.9 | 1.36 | 1.18 | 3.21 | 4.96 | 3.85 | 1.75 |
| YRQNGYIPGSN [PCDHGA1_Y895_V894G] | 0.896 | 0.452 | 0.846 | 0.399 | 0.381 | 0.547 | 0.423 | 0.384 | 0.467 | 0.405 | 0.485 | 0.47 | 0.439 | 0.405 | 0.422 | 0.404 |
| MNPPPYSQFLS [FGF23_Y154] | 0.489 | 0.541 | 0.742 | 0.508 | 0.467 | 0.706 | 0.711 | 0.478 | 0.687 | 0.511 | 0.585 | 0.536 | 0.567 | 0.543 | 1.38 | 0.44 |
| SGIFQYIIAKF [FOXL2_Y83_YF] | 1.27 | 0.763 | 1.35 | 0.639 | 0.602 | 1.13 | 0.503 | 0.496 | 1.07 | 0.546 | 1.14 | 0.84 | 0.704 | 0.518 | 0.561 | 0.564 |
| VNFGAYINFFK [GLB1_Y488_D491Y_YF] | 0.784 | 0.611 | 0.918 | 0.663 | 0.586 | 1.75 | 0.624 | 0.441 | 1.87 | 0.495 | 1.38 | 1.49 | 0.963 | 0.57 | 0.717 | 0.558 |
| SDMGQYQCLVF [AXL_Y115_T112M] | 0.916 | 0.437 | 0.726 | 2.05 | 0.923 | 1.22 | 3.38 | 2.35 | 0.933 | 3.14 | 1.3 | 1.57 | 1.89 | 1.84 | 1.97 | 0.991 |
| ILGRTHFVNHE [NEDD4_Y627_Y627H_YF] | 0.637 | 0.466 | 0.899 | 0.397 | 0.471 | 0.707 | 0.457 | 0.476 | 0.485 | 0.451 | 0.633 | 0.5 | 0.559 | 0.423 | 0.377 | 0.535 |
| FQKNIYSEELR [LMNA_Y211] | 1.5 | 0.591 | 1.02 | 0.801 | 0.84 | 1.24 | 0.516 | 0.965 | 1.04 | 1.07 | 1.01 | 1.04 | 1.2 | 5.8 | 1.81 | 0.728 |
| YEEDSYVTRSQ [RET_Y905_K907T] | 0.628 | 2.16 | 0.906 | 0.604 | 0.59 | 1.12 | 0.548 | 0.499 | 1.04 | 0.543 | 1.21 | 0.69 | 0.964 | 0.468 | 0.496 | 0.565 |
| HDHYGYRQSVT [CD55_Y245_R240H] | 0.833 | 0.654 | 0.895 | 0.695 | 0.4 | 1.06 | 0.743 | 0.94 | 1.06 | 0.969 | 0.801 | 0.622 | 0.623 | 0.883 | 0.538 | 0.713 |
